From the supplement of paper PMC7877785
± gives the uncertainty stated by the source.

Experiment: self-splicing fitness, log relative to wild type (ln ratio); higher = more splicing; Tetrahymena group I intron in knt gene, E. coli kanamycin selection, DiMSum; sequences stand for … in CUCUCU…GGAGGGAAAAGUUAUCAGGCAUGCACCUGGUAGCUAGUCUUUAAACCAAUAGAUUGCAUCGGUUUAAAAGGCAAGACCGUCAAAUUGCGGGAAAGGGGUCAACAGCCGUUCAGUACCAAGUCUCAGGGGAAACUUUGAGAUGGCCUUGCAAAGGGUAUGGUAAUAAGCUGACGGACAUGGUCCUAACCACGCAGCCAAGUCCUAAGUCAACAGAUCUUCUGUUGAUAUGGAUGCAGUUCACAGACUAAAUGUCGGUCGGGGAAGAUGUAUUCUUCUCAUAAGAUAUAGUCGGACCUCUCCUUAAUGGGAGCUAGCGGAUGAAGUGAUGCAACACUGGAGCCGCUGGGAACUAAUUUGUAUGCGAAAGUAUAUUGAUUAGUUUUGGAGUACUCGUGGUCG
Summary of the method: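 The eight P1ex-region nucleotides of an intron in the knt kanamycin-resistance gene on pET-22b(+) were all randomised and the library put into E. coli BL21(DE3). Six replicate transformations were grown overnight at 37°C or 30°C on LB agar with or without 25 μg/mL kanamycin, together with 100 μg/mL carbenicillin, 50 μM IPTG and 0.2% rhamnose. Colonies were pooled and amplicon-sequenced on an Illumina HiSeq 2500. Fitness from DiMSum is the error-weighted combination of wild-type-normalised replicate fold changes, kanamycin over none.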

Sequence	self-splicing fitness (ln) (30 °C)	self-splicing fitness (ln) (37 °C)
UUAUAGCAAUAUUACGCGUA	-0.829 ± 0.14	-1.17 ± 0.14
UUAUAGCAAUAUUACGGAAC	-3.09 ± 0.36	-1.71 ± 0.44
UUAUAGCAAUAUUACGGAGA	-2.04 ± 0.27	-1.89 ± 0.32
UUAUAGCAAUAUUACGGCCA	-1.18 ± 0.31	-0.579 ± 0.33
UUAUAGCAAUAUUACGGCUA	-0.836 ± 0.15	-0.316 ± 0.14
UUAUAGCAAUAUUACGGCUC	-2.3 ± 0.26	-0.637 ± 0.26
UUAUAGCAAUAUUACGGGGC	-2.88 ± 0.34	
UUAUAGCAAUAUUACGUACC	-3.97 ± 0.31	-3.01 ± 0.3
UUAUAGCAAUAUUACGUAUC	-3.79 ± 0.31	-3.04 ± 0.32
UUAUAGCAAUAUUACGUAUU		-2.08 ± 0.25
UUAUAGCAAUAUUACGUCAU		-2.98 ± 0.37
UUAUAGCAAUAUUACGUCUU	-3.35 ± 0.3	-0.948 ± 0.17
UUAUAGCAAUAUUACGUGCG	-1.06 ± 0.15	-0.395 ± 0.17
UUAUAGCAAUAUUACGUGCU	-2.75 ± 0.16	-1.91 ± 0.14
UUAUAGCAAUAUUACGUUCA	-0.931 ± 0.15	0.00672 ± 0.15
UUCAAGCAAUAUUACGAAUA	-2.07 ± 0.18	-0.837 ± 0.12
UUCAAGCAAUAUUACGACGC	-1.27 ± 0.19	-1.14 ± 0.26
UUCAAGCAAUAUUACGAGAA	-1.84 ± 0.3	-1.61 ± 0.37
UUCAAGCAAUAUUACGAGGC	-1.97 ± 0.21	-1.76 ± 0.23
UUCAAGCAAUAUUACGAGUU	-2.6 ± 0.12	-0.389 ± 0.099
UUCAAGCAAUAUUACGCACC		-1.68 ± 0.49
UUCAAGCAAUAUUACGGAAU		-2.57 ± 0.23

Sequence	self-splicing fitness (ln) (30 °C)	self-splicing fitness (ln) (37 °C)
UUCAAGCAAUAUUACGGACU	-2.76 ± 0.17	-0.504 ± 0.13
UUCAAGCAAUAUUACGGUUU	-3.08 ± 0.21	-1.84 ± 0.17
UUCAAGCAAUAUUACGUAAG	-1.89 ± 0.074	-0.866 ± 0.077
UUCAAGCAAUAUUACGUAGA	-1.5 ± 0.094	-0.928 ± 0.14
UUCAAGCAAUAUUACGUAUC	-4.16 ± 0.24	-1.85 ± 0.16
UUCAAGCAAUAUUACGUCCG	-1.33 ± 0.095	-0.121 ± 0.14
UUCAAGCAAUAUUACGUUCA	-0.938 ± 0.077	-0.12 ± 0.077
UUCCAGCAAUAUUACGAAUG	-3.59 ± 0.19	-1.75 ± 0.15
UUCCAGCAAUAUUACGAAUU	-3.98 ± 0.18	-2.05 ± 0.14
UUCCAGCAAUAUUACGACAG	-1.39 ± 0.17	-0.449 ± 0.18
UUCCAGCAAUAUUACGCGGG	-3.83 ± 0.29	-2.69 ± 0.29
UUCCAGCAAUAUUACGCUGC	-3.79 ± 0.28	-2.09 ± 0.4
UUCCAGCAAUAUUACGGAGA	-1.83 ± 0.084	-0.628 ± 0.081
UUCCAGCAAUAUUACGGCCC	-2.34 ± 0.38	
UUCCAGCAAUAUUACGGCUA	0.12 ± 0.12	-0.25 ± 0.1
UUCCAGCAAUAUUACGGGAG	-3.38 ± 0.16	-1.77 ± 0.14
UUCCAGCAAUAUUACGGGUG	-0.109 ± 0.058	-0.15 ± 0.076
UUCCAGCAAUAUUACGUACA	-1.11 ± 0.1	-0.862 ± 0.12
UUCCAGCAAUAUUACGUCAG	-1.75 ± 0.077	-1.19 ± 0.097
UUCCAGCAAUAUUACGUCCG	-2.28 ± 0.18	0.24 ± 0.2
UUCCAGCAAUAUUACGUCUG	-2.71 ± 0.15	-2.28 ± 0.24
UUCCAGCAAUAUUACGUCUU	-2.64 ± 0.15	-2.27 ± 0.2
